For this assay, the target named is SARS-CoV-2 recombinant spike HexaPro protein (SARS-CoV-2) (UniProt P0DTC2). Kind of assay: SPR.

Consider “ACE2 monomer construct (SS-ACE2-Linker) (from UniProt Q9BYF1 19-614)”, for which the Kd is 72 nM.

For orientation: Kd means the free concentration of one partner at which half of the binding sites on the other are occupied at equilibrium, for simple one-to-one binding.

The values above are taken from patent US20250367270A1.
